The target in assay [1] is SARS-CoV-2 spike protein receptor binding domain, wild-type (SARS-CoV-2) (UniProt P0DTC2). The assay is described as follows: ITC. For orientation: In ITC the heat of successive injections is recorded.
Assay [2] shares this target. The assay is described as follows: ITC. This is another data set of the same source.

Consider two substances from publication PMC9076029.

In general, Kd refers to the free concentration of one partner at which half of the binding sites on the other are occupied at equilibrium, for simple one-to-one binding. The low end stands for tighter binding, the high end for weaker binding.

Read-outs that look alike come from different tables or passages of the source.

The substance “P2B-2F6 single chain variable fragment (scFv)” yielded a Kd in assay [1] of 0.0814 µM.

For the substance “CC12.1 single chain variable fragment (scFv)”, the Kd in assay [2] was determined as 0.028 µM; in assay [1] it was 0.0239 µM.
